Measured values reported in patent US20220025406.

Assays:
Assay in all cases: cell_activity
[1] = system: gp3-phiC31 integrase fusion (Streptomyces phage phiC31?); conditions: HeLa CI.24.22.21.3, attL x attR recombination, 13 of 27 clones
[2] = system: phiC31 integrase (Streptomyces phage phiC31?); conditions: HeLa CI.24.22, 4 of 24 clones positive
[3] = system: hyperactive piggyBac transposase (HAhyPBase); conditions: excision in HeLa (step 1 and step 3 both 17%); 46% in hiPS cells (Table 17)
[4] = system: Sleeping Beauty transposase SB100X; conditions: excision in HeLa, 3 of 21 clones

Question: phiC31 attL (genomic) x attR (pEP50) was tested. Which activity [1] did it give?
Answer: Its activity is 48%.

Question: For phiC31 attB (pEP24) x attP (pEP28), which activity [2] is on record?
Answer: The activity was 16%.

Question: For piggyBac ITRs flanking puro-delta-tk, which activity [3] is on record?
Answer: The activity was 17%.

Question: Which activity [4] does the source give for “Sleeping Beauty ITRs flanking puro-delta-tk” here?
Answer: Its activity is 14%.
